By EC50 is commonly meant the midpoint of the concentration-response curve.

For assay [1], the target named is T1, in vitro misfolded/aggregated human SOD1 (metal-catalyzed oxidation) (human, UniProt P00441 2-154, oxidized by metal-catalyzed oxidation (4 mM ascorbic acid, 0.2 mM CuCl2, 48 hours at 37 C); residues not stated).
T1 construct: also called Oxidized SOD1; in vitro aggregated human SOD1 dimers
The assay is described as follows: direct ELISA, oxidized human SOD1 coated at 20 µg/ml. On the technique in general: In an ELISA, binding on a coated surface is turned into a signal by an enzyme label.

Assay [2] addresses T2, recombinant human SOD1 (biomol, Hamburg) (human, UniProt P00441 2-154, limits assumed).
T2 construct: Bought protein; also called recombinant human superoxide dismutase 1; Recombinant SOD1
The assay is described as follows: direct ELISA, recombinant SOD1 coated at 20 µg/ml.
Method: (§1) Primary antibodies were diluted to the indicated concentrations and incubated 1 h at RT. Binding was determined using either a donkey anti-human IgG Fcγ-specific antibody conjugated with HRP or a goat anti-mouse IgG (H+L)-specific antibody conjugated with HRP, followed by measurement of HRP activity in a standard colorimetric assay.
(§2) The EC₅₀ of the different human-derived SOD1-specific antibodies for native human SOD1 dimers, denatured/oxidized human SOD1 and recombinant SOD1 was determined by direct ELISA with coating of the different SOD1 species at 20 μg/ml concentration.

Assay [3] concerns the target T3, wild type SOD1 from human erythrocytes (physiological dimers) (human, UniProt P00441 2-154).
T3 construct: Purified from human erythrocytes (Sigma-Aldrich); homodimer; control incubated in Tris acetate buffer without oxidants; also called Native SOD1; native human SOD1 dimers
The assay is described as follows: direct ELISA, native human SOD1 dimers coated at 20 µg/ml.
Method: as §1, §2

The target in assay [4] is T4, in vitro denatured human SOD1 (human, UniProt P00441 2-154).
T4 construct: also called Denatured SOD1; unfolded SOD1
The assay is described as follows: direct ELISA, denatured human SOD1 coated at 20 µg/ml.
Method: as §1, §2

The target in assay [5] is T2, recombinant human SOD1 (biomol, Hamburg). The assay is described as follows: direct ELISA, recombinant human SOD1 coated at 3.3 µg/ml.
Method: Binding was determined using a donkey anti-human IgGγ antibody (Jackson immunoResearch, Newmarket, UK) conjugated with HRP, followed by measurement of HRP activity in a standard colorimetric assay.
The EC₅₀ values were estimated by a non-linear regression using GraphPad Prism (San Diego, USA) software.
In a further assay the target is T5, bovine serum albumin (bovine, UniProt P02769 25-607).
T5 construct: Control antigen in ELISA; also called BSA
The assay is described as follows: direct ELISA, BSA coated at 3.3 µg/ml.

Assay [6] has as its target T1, in vitro misfolded/aggregated human …. The assay is described as follows: direct ELISA, in vitro aggregated human SOD1 coated at 34 µg/ml.
Method: Non-specific binding sites were blocked for 1 hr at RT with PBS/0.1% Tween®-20 containing 2% BSA (Sigma-Aldrich, Buchs, Switzerland). […] Binding was determined using either a goat anti-mouse IgG antibody (Jackson immunoResearch, Newmarket, UK) or a donkey anti-human IgGγ antibody (Jackson immunoResearch, Newmarket, UK) conjugated with HRP, followed by measurement of HRP activity in a standard colorimetric assay. EC₅₀ values were estimated by a non-linear regression using GraphPad Prism software (San Diego, USA).
The target of assay [7] is T2, recombinant human SOD1 (biomol, Hamburg). The assay is described as follows: direct ELISA, recombinant human SOD1 coated at 30 µg/ml.
Method: (§3) Binding was determined using either a goat anti-mouse IgG antibody (Jackson immunoResearch, Newmarket, UK) or a donkey anti-human IgGγ (Jackson immunoResearch, Newmarket, UK) antibody conjugated with HRP, followed by measurement of HRP activity in a standard colorimetric assay. The EC₅₀ values were estimated by a non-linear regression using GraphPad Prism (San Diego, USA) software.
Assay [8] has the same target. The assay is described as follows: direct ELISA, recombinant human SOD1 coated at 1 µg/ml.
Method: as §3
Assay [9] has the same target. The assay is described as follows: direct ELISA, recombinant human SOD1 coated at 0.1 µg/ml.
Method: as §3
For assay [10] the target is unchanged. The assay is described as follows: direct ELISA, recombinant human SOD1 coated at 10 µg/ml.
Method: as §3
The target of assay [11] is wild type SOD1 from human erythrocytes (physiological dimers) (human) (UniProt P00441). The assay is described as follows: direct ELISA, native human SOD1 dimers coated at 20 µg/ml; Native SOD1 (not denatured, oxidized or recombinant).
Chain of wild type SOD1 from human erythrocytes (physiological dimers) (human) (P00441 2-154 limits assumed): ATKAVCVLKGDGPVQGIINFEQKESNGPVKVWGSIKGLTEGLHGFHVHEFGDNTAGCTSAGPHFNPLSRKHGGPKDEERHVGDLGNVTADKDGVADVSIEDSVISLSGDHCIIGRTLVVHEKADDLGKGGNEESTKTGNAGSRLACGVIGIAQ

T1 sequence (P00441 2-154 limits assumed): as above
T3 sequence (P00441 2-154 limits assumed): as above
T4 sequence (P00441 2-154 limits assumed): as above
T2 sequence (P00441 2-154 limits assumed): as above
T5 sequence (P02769 25-607 limits assumed): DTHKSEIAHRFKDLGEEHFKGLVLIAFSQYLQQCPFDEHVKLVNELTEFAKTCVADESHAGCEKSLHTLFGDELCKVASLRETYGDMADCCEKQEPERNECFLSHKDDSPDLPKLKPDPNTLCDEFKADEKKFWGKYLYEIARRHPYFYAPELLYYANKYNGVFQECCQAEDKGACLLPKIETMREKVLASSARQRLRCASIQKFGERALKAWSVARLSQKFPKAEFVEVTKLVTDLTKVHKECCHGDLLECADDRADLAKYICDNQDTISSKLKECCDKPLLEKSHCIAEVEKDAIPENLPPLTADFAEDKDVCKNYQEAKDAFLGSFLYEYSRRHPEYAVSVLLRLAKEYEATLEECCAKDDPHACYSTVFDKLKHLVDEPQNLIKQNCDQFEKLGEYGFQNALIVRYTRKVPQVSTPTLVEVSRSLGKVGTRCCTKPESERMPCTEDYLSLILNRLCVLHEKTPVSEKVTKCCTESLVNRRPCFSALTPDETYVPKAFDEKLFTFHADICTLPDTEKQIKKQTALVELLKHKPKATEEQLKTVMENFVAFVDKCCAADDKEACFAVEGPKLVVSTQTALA
From the text for bovine serum albumin: Non-specific binding sites were blocked for 2 hr at RT with PBS containing 2% BSA (Sigma-Aldrich, Buchs, Switzerland) and 0.5% Tween20.

B1: NI-204.11F11 (antibody, human IgG1, V domains shown)
VH: EVQLVESGGGLVKPGGSLRLSCAASGLPFSKAWMSWVRQAPGKGLEWVGRIKSQADGGAIDYATSVNGRFTITRDDSKNTLYLQMTSLKTEDTAVYYCTPGIILRFLEGTLRGMDVWGQGTTVTVSS
VL: EIVLTQSPPTLSLSPGERATLSCRASQTVSKYLAWYQQKPGQAPRLLVYDTSNRAIGIPPRFSGSGSGTDFTLTISTLEPEDFALYYCQQRSNWPPTFGQGTRLEIK
On to B1, for which the EC50 in assay [1] was found to be 0.4 nM; in [2], 0.5 nM; in assay [3], 50 nM; in [4], 0.3 nM.

B2: NI-204.12G7 (antibody, human IgG1, V domains shown)
VH: EVQLVESGAEVKKPGASVTLSCKASGYTFTAYYIHWVRQAREQGLEWMGVINPSTGTTFYAQNFPDRVSVTRDTSTSTVFMELHNLKSEDTAVYYCARAISEHGSGSYSPYYWGQGTLVTVSS
VL: SYVLTQPPSVSVSLGQMAAITCSGEALPKKYGYWYQQKPGQVPVLLIYRDVERPSGVPDRFSGSSSGTMVTLTISGVQAEDEADYYCLSADSSGTWVFGGGTKLTVL
In the case of B2, the EC50 in assay [1] is 0.6 nM; in assay [5], 0.4 nM; in [2], 0.06 nM; in assay [6], 3.6 nM; in assay [3] it was greater than 40 nM; in assay [7], 0.36 nM. The EC50 in assay [8] was 3.1 nM; in assay [9] it was 75.9 nM; in assay [10], 0.39 nM; in assay [4], 0.07 nM. For the same molecule, the binding result in the assay with bovine serum albumin is “no binding”.

B3: NI-204.7G5 (antibody, human IgG1, V domains shown)
VH: EVQLVESGGGVVQAGGSLRLSCVASGLTFSSYGMHWVRQAPGKGLEWVAVISYDGRSKFYADSVKGRFTISRDNSKNTLYLQMNSLRAEDAAVYYCANARVRDACSGTRCDKFGFYMDVWGKGTTVTVSS
VL: SYVLTQPPSVSVSPGQTARITCSGDALPKKYAYWYQQKSGQAPVLVIYEDIKRPSGIPERFSGSSSGTMATLTISGAQVEDEGDYYCYSADRSGNRWAFGGGTKLTVL
As for B3, the EC50 is 5 nM in [1], 13 nM in assay [2], greater than 100 nM in assay [3] and 60 nM in assay [4].

B4: NI-204.6H1 (antibody, human IgG1, V domains shown)
VH: QVQLQQWGAGRLRPSETLSLTCAVYGGSFNGYARTWIRQPPGKGLEWIGEIDHRENTNYNPSLKSRVTMSVDTSKNQFSLRLNSVTAADTAVYFCARGQKNAKDQHEGFRYWGRGTLVTVSS
VL: SYELTQPPSVSVSPGQTARITCSGDALPKQFAYWYQQKSGQAPKLVIFKDTERPSGIPERFSASSSGTKATLTISGVQAEDEADYYCQSADRTATSWVFGGGTKLTVL
Regarding B4, the concentration for a half-maximal effect (EC50) in assay [1] was 4 nM; in assay [2], 2 nM; in assay [3] it was greater than 100 nM; in [4], 5 nM.

B5: NI-204.34A3 (antibody, human IgG1, V domains shown)
VH: EVQLVESGGGLVKPGGSLRVSCDVSGQRLSKAWMNWVRQTPTRGLEWVGLIKRDADGGTTEFAAPVEGRFTISRDDIQNTMTLHMTRLRVDDTGVYYCVAGDIGCIKENCRWGEGTTVTVSS
VL: SYELTQPPSVSVSPGQTARITCSGDALPTKFAFWYQQKSGQAPVLVIYEDDKRPSGIPQRFSGSSSGTTATLTISGAQEEDDADYYCYSKDSTNVERVFGTGTKLSVL
On to B5, for which the 50% effective concentration (EC50) is 12 nM in assay [1], 2 nM in assay [2], greater than 100 nM in [3] and 10 nM in assay [4].

B6: NI-204.9F6 (antibody, human IgG1, V domains shown)
VH: EVQLVESGGGLVQPGGSLRLSCAVSGFTFDTFAMSWVRQAPGKGLEWVSAITASSSKTYYADSVKGRFTISRDNSRNTVYLRLSSLRADDTAVYFCARPKGAHSGLYIESAFDLWGPGTMVTVSS
VL: SYVLTQPPSVSVSAGQTASITCSADMLGDTYVSWYQKRPGQSPVLLIYQDSKRPSEIPERFSGSSSEDTATLTITGTQALDEAAYYCQVWDRRTTTYVFGPGTEVTVL
notes: also called NI-209.9F6
On to B6, for which the EC50 was greater than 100 nM in [1]; 105 nM in assay [5]; greater than 100 nM in [2]; 127 nM in assay [6]; greater than 100 nM in [3]; 117 nM in assay [7]. Moreover, the results for the EC50 in assay [8], in assay [9] and in assay [10] were 134 nM, 451 nM and 148 nM, respectively. The binding result with bovine serum albumin is “no binding”.

B7: NI-204.67E12 (antibody, human IgG1, V domains shown)
VH: EVQLLESGGGLIRPGGSLRLSCAASGFTFSNYAMGWVRQAPGKGLEWVSAISGNGGSTYYGGSVKGRFTISRDKSKNTLYLQMNNLRADDTAVYFCAKLEAVAPTLTLRYFKHWGKGTLVTVSS
VL: DIQMTQSPSTLSASVGDRVTITCRASQSISRWLAWYQQRPGRAPDLLIYDASNLESGVPSRFSGSGSGTEFTLTISSLQPGDFATYYCQQYYSYVYTFGQGTKLEIK
As to B7, the EC50 in assay [1] came out at 0.06 nM; in assay [2] it was 0.2 nM; in [3], 0.1 nM; in [4], 0.08 nM.

B8: NI-204.7B3 (antibody, human IgG1, V domains shown)
VH: EVQLVQSGGDIVQSGGSLRLSCAASGFVFSSNWMHWVRQRPGKGLEWISLINVDGRTTKYADSVKGRFTISRDNAKKTVYLQMDSLRAEDTAVYYCVKVEGLNWGPGTLVTVSS
VL: LPVLTQPPSVSVSPGQTARITCSGDELSKQYAYWYQKKSGQAPVMVVNEDTKRPPGIPERFSGSSSGTTSTLTISGVQAEDEADYYCQSADITGSWVFGGGTKLTVL
As for B8, the EC50 is greater than 100 nM in assay [1], 42 nM in [2], greater than 100 nM in assay [3] and 50 nM in [4].

B9: NI-204.10D12 (antibody, V domains shown)
VH: EVQLVESGGDLVRPGGSLRLSCVASGFTFSNYWMHWVRQAPGQRPVWVSRTNTDGRNTAYADYAKGRFTISRDNAKSTLYLQLNSLRAEDTAVYFCARLRRNVADQITHNYYMDVWGKGTLVTVSS
VL: EIVLTQSPGSLAVSLGERATINCKSSQTVLYNNKNYLAWYQQKPGQPPKLLISWASSRESGVPDRFSGSGSGTDFTLTISSLQAEDVAVYYCQHYYGTPVTFGGGTKVEIK
Consider B9, for which the half-maximal effective concentration (EC50) in assay [1] was 6 nM; in assay [5], 10 nM; in assay [11], greater than 100 nM; in assay [2] it was 7 nM; in [6], 15 nM; in [7], 35 nM. Besides, the EC50 in assay [8] was 81.4 nM; in assay [9], 606 nM; in [10], 24 nM; in [4], 5 nM. Besides, in the assay with bovine serum albumin, the binding result is recorded as “no binding”.

B10: NI-204.25H3 (antibody, human IgG1, V domains shown)
VH: QVQLQESGPGLVKPSETLSLTCTVSGGSISSSYWSWIRQPPGQGLEWIGYIYYSGNTYYNPSLKSRVTISIDTSKTQFSLNLTSVSAADTAVYYCARDGIPGAIGMDVWGQGTTVTVSS
VL: QSVLTQPPSVSAAPGQKVNISCSGSSSNIGNNYVSWYQRLPGTAPKLLIYDNNKRPSGIPDRFSGSKSGTSATLGITGLQTGDGADYYCATWDKSLIAVVFGGGTKLTVL
Turning to B10, the EC50 in [1] was 2 nM; in assay [2], 1 nM; in assay [3], greater than 100 nM; in [4], 4 nM.

The record behind these values is patent US20140301945A1 (NEURIMMUNE, published 2014).
